# Source: the DeepSol protein solubility set
# Test: soluble on expression in E. coli; label from the status in PepcDB or PDB records
row,Sequence,soluble on expression in E. coli
1,TSRKLNDAANERLAAQQDLRNAATLIVRDARMAGGFGCFNMSEHPATDVIPDTTQQNSPFSLKRNGIDKLIPIAESSNINYQNFFQVGSALIFQYGIDD,not soluble
2,IDRKVLSQLRNRFLSLNDGRYARALEGMSTRQQSVLTLLPLFFHVNHPLLPGYVSGSTPAGVSHYEPDTLALAEAQRLTRSFSYKARHGNPPQPIHGLFLMGSLGTLAQADQSDMDVWVCHDSELDLEAIAELRKKCQALEAWAATMGAEAHFFLIDPQRFKSGERDSQLSSDDCGTTQHYLLLDEFYRTAIWLAGRTPMWWMVPVYEEQNYEDYTYTLLSKRFIRASEVLDLGPMSHIPATEFIGAGLWQLFKGIGSPYKSVLKLLLIEVYSSEHPRVQCLSLRFKQAVFANQLDLDELDPYVVVYRRIEEHLQARNEPERLELVRRSLYLKVNKKLTGSTRQRNIGWQRLLLARLTSEWGWDERQLTLLDSRSQWKVRQVASERRALVNELNYSYRFQTRFARAQSTADTLDARDLTILGRRLYAAYERKAGKVEFINPGIAPDLAEDTLTLVHSPDKREPGKHQWALYNGNLGIHEWANFSPIKRSRELLELLAWCHRNNVIDTTTRVALHPGTSDLSEFELFNLLGALQQSIELPLPEVSDDELLKPSAPSEILLLINVGVDPLRHHRDLNILMTTERTDSLSYAGVRENLVLTLDQITLNTWNETLVSRYDGPHALLDCMSELLGSLPTSGKQPQIRVRCFCHNRASAIAQRVEELISTAQLLLARQLNHRYLIQVQQQYHVLEIKPGQVGHVVVNSLPGLFKYLGEELPRYSPLHLDPQALDGHDLALILPLGQPECIQVFYRINEPDADLYVLDEHNSLWHQRVPYHDEQSLLTPLQRFFHSLVYRRGASLPLDD,not soluble
3,GPGSMQERESLLKEYKGLLANLEEAFDLKRSNEADQEVDDLIDETKAELRTVVASLNASEVIEVTKDVTKVVDADGNTVILYSKVAPYEVHFDNAMWYSCVITDVVQPETALERVRYKAWILGYNVEEETYSEQLRVWQPQAAEGETTLRSGVACHAVNPRSGRFESAKVVRLTLSDTVILTFSDVVEMTKEVGETDGAGAAGELATGKRDPSGGDTSAVTEEVPLSHVRVGRFYQQLRKRSTLTSEERARRRAQNVERKRVRRETKRQQDANVASQNANDWQRLVEDMGLATGCAKKRR,soluble
4,MIELKHLRTLQALRNTGSLAAAATQLHQTQSALSHQFSDLEQRLGFRLFVRKSQPLRFTTQGEILLQLAEQVLPQIKQALQTCNEPHQTALRIAIECHSCIQWLTPALDNFHKHWPQVTMDFKSGVTFDPQPALQQGELDLVLTSDILPRSGLHYSPMFDFEVRLVLAPDHPLANKDRIEPEDLAPEVLMIYPVQRQRLDVWRHFLQPAGVSPSSKNVDNTLLLIQMVSARMGIAALPHWVVESFERQGLVVTKTLGEGLWSRLYAAVRDGEQRQPVTEAFIRSARQHACDHLPFVKDAVRSNAGVPTAKPLSPQLQ,not soluble
5,MKFDRHRRLRSSATMRDMVRENHVRKEDLIYPIFVVEKDDVKKEIKSLPGVYQISLNLLESELKEAYDLGIRAIMFFGVPNSKDDIGTGAYIHDGVIQQATRIAKKMYDDLLIVADTCLCEYTDHGHCGVIDDHTHDVDNDKSLPLLVKTAISQVEAGADIIAPSNMMDGFVAEIRRGLDEAGYYNIPIMSYGVKYASSFFGPFRDAADSAPSFGDRKTYQMDPANRLEALRELESDLKEGCDMMIVKPALSYLDIVRDVKNHTNVPVVAYNVSGEYSMTKAAAQNGWIDEERVVMEQMVSMKRAGADMIITYFAKDICRYLDK,not soluble
6,MSLSPAQLAAVRRSFRNGRASLTRRSLLRASAGGALAVGGLGALSACGIPAAGRTEGGVSAEDHSAEEKTINFSNWPEYIDVDDSGKRHPTLDAFAKRTGIQVKYTEDINDNDEFFGKIQPQLAAGQSTGRDLIVLTDWLAARMIRLGYVQKLDPSHLPHAFANLSDQFRAPDWDPGRAYSYPWQGISTVIAYNKKALDGVEVKSVSDLLDNPKLKGRVGFLTEMRDSVGMTMLDMGKDPAKFTDDDYDAVIARLQKAVDKGQIRRFTGNDYTSDLSKGDFAACIAWAGDIVQLQADNPDVGYVIPDSGYMTSTDNMLIPNKARHKTNAERLIDYYYELEPAAELAAYINYVSPVAGVQPYLAKIDKSAADNPLIVPDKAMQAKSHAFRSLSSKEETAYQQKFAKLTGAEGHHHHHH,soluble
7,MPTLPRAANSRWRSLKIGLAPDLGLDDNGSLLLDFGPRQFTVSFDETLKPFVRDVSGSRLKDLPKPNKSDDETRANDAVNRYKLLKKDARTIAAQQVARLESAMCLRRRWSLENFQLFLVEHPLVRHLTRRLIWGVYSAENQLLACFRVAEDNSSSTADDDLFTLPEGDISIGTPHVLEISPTDAAAFGQLFADYELLPPFRQLDRNSYALTEAERNASELTRWAGRKCPSGRVMGLANKGWIKGEPQDGGWIGWMIKPLGRWSLIMEIDEGFAVGMSPAELSAEQLLSKLWLWEGKAERYGWGSNSTQEAQFSVIDAITASELINDIEALFE,not soluble
8,MGSDKIHHHHHHMRIALVTNTFLPLTGGGEFVVHHLGNQWSMQGHDVCVFNSLTAEVAHPEALYKVMRYKIMRGATRFGYHRFPWVNVSTRSLNRQINYFNPDFVSGHFSIPVALYLDNLKPKRIWSITSHGSDIVRNDVNSQRDQYDIDNKLANSLNNASSVIAISNSAKANLLDIGVKPSLIRVIPNGVELNRFKTKANTNIREMFNIPEHKKLVLTVGRNSLVKNLGLGINAVAEIAKSRSDIHYLIVGGGTSQLNETIINRGLRDTVTTCENLAGESLVAAYQQSDIFLSTSNYECCPLVILEAMASGLPIVATQVAGNVDLIDNEVNGLLVGRNNHMHIVNAITMLIADKRLCHSISTTNYDKVSDYSWDTVSRSYLELLQ,not soluble
9,MGSDKIHHHHHHMSHLQTSNLPFKQRVDQQVHNEIMRKAVVNAQETIGQNRQKMVDELGHWEEWRDLSKQFRNHVLANLDAYLYQLSEKVKQNGGHVFFAETAEEATAYIRKVALAQKAKTIVKSKSMVTEEIGMNHVLEAEGINVVETDLGEYLLQIVGDKPSHIVVPAIHKDRHRIRKELHEKLGYTGSEQPEEMNAFVRKTLRKDFLNADIGISGCNFAVAETGSVCLVTNEGNLRLATTLPKTHIAVMGMERLAPTFKEVDALITMLCRSAVGAKLTAYNTWLTGPRLEGETDGPEDFHLVIVDNGRSKILASEFAEVLRCIRCGACLNTCPAYRQIGGHGYGSIYPGPIGAVISPLLGGYDEFKDLPYACSLCTACNSVCPVKIPLAQLILKHREKLVEEGRTPKGEQLAIKGFSFANSHPSLWGAGVKIGAKIAAKFIKNGKAPLQPGALGEWTKARDLPNPEGQSFREWFANRK,not soluble
10,MAAIDLNSDLGESYGAWRMGDDEAMLAIVSSANIACGFHAGDPAGIYRTVKAAAEKGVVVGAHVSYPDRVGFGRRDLDATSEELIADVIYQIGALKGVAAAAGTTVRYVKPHGALYNRIANDAKQGQAVIDGIKAIDPSLVLMGLANAPILDLARKAGLAVVAEAFADRAYTPEGQLVSRREAGAVLHDAAKIAERMVQLAREGTLEAIDGSIIKIEAQSICVHGDSPGAVAIAQEIRRRFEADGIAIRSFASDRLEHHHHHH,not soluble
11,MNHLKEVYIDIRDEIFDALDAASLVDVEPLELESQLKDSVNILIEKKQLQISSLKRLDLVKALLDELKGLGPLQALVDNDDISDIMINGPSDIFIEINGKVEKSPIQFVNEKQLNTIAKRIASNVGRRIDESKPLCDARLEDGSR,not soluble
12,SMTLTLNRQLLTSRQILVAFSGGLDSTVLLHQLVQWRTENPGVALRAIHVHHGLSANADAWVTHCENVCQQWQVPLVVERVQLAQEGLGIEAQARQARYQAFARTLLPGEVLVTAQHLDDQCETFLLALKRGSGPAGLSAMAEVSEFAGTRLIRPLLARTRGELVQWARQYDLRWIEDESNQDDSYDRNFLRLRVVPLLQQRWPHFAEATARSAALCAEQESLLDELLADDLAHCQSPQGTLQIVPMLAMSDARRAAIIRRWLAGQNAPMPSRDALVRIWQEVALAREDASPCLRLGAFEIRRYQSQLWWIKSVTGQSENIVPWQTWLQPLELPAGLGSVQLNAGGDIRPPRADEAVSVRFKAPGLLHIVGRNGGRKLKKIWQELGVPPWLRDTTPLLFYGETLIAAAGVFVTQEGVAEGENGVSFVWQKTLS,soluble
